Results: publication PMC4634304, “Evidence-Based Structural Model of the Staphylococcal Repressor Protein: Separation of Functions into Different Domains”

Experiments:
[1] = target: Φ11 dUTPase, dUTPase enzyme from the Φ11 Staphylococcal phage (Staphylococcal phage Φ11); assay: inhibition of enzyme activity (steady-state dUTPase kinetics); 20 nM Φ11 dUTPase, 1 mM HEPES-HCl pH 7.5, 5 mM MgCl2, 150 mM KCl, phenol red, 293 K; the two proteins preincubated 5 min; quadratic binding equation fitted; apparent Ki
[2] = target: Φ11 dUTPase, dUTPase enzyme from the Φ11 Staphylococcal phage (Staphylococcal phage Φ11)
[3] = target: Φ11 dUTPase, dUTPase enzyme from the Φ11 Staphylococcal phage (Staphylococcal phage Φ11); remark: listed apart in the source
Stl-CTD = Stl-CTD (Staphylococcus aureus pathogenicity …, UniProt Q9F0J8 85-267); assay: EMSA; no shift at 2-30 uM Stl-CTD (monomer); conditions: protein: recombinant; tags: N-terminal GST removed by thrombin (pGEX-4T-1); label: none (GelRed stain); blunt
[4] = target: Stl (SaPIbov1 repressor), wild type (Staphylococcus aureus pathogenicity …, UniProt Q9F0J8); assay: EMSA; shift at 1 uM Stl (monomer); conditions: protein: recombinant; tags: N-terminal GST removed by thrombin (pGEX-4T-1); chain copies: 2; label: none (GelRed stain); blunt

Row | Molecule | Ki [1] [nM] | maximum inhibition of Φ11 dUTPase activity at saturating Stl-CTD concentration [2] [%] | maximal inhibition of Φ11 dUTPase activity by Stl-AA [3] [%] | binding result (Stl-CTD) | binding result [4]
1 | Stl-CTD, carboxy-terminal domain of the SaPIbov1 pathogenicity island repressor Stl (domain or fragment) | 1.5 | 40 |  |  | 
2 | Stl-Q40A,N41A double mutant of the SaPIbov1 repressor Stl (natural protein) | 1.4 |  | > 90 |  | 
3 | 57mer Stl-binding dsDNA (dsDNA) DNA 1: GCTCATATTATTCCTCTCCTACCATTTTATCTCTAATTGAGATATTTATATTCAGAT DNA 2: ATCTGAATATAAATATCTCAATTAGAGATAAAATGGTAGGAGAGGAATAATATGAGC |  |  |  | no binding | binds
